Values quoted from earlier work, collected in US9173901B2, “Compositions and methods of using lamellar bodies for modifying linear biological macromolecules” (LAMELLAR THERAPEUTICS LIMITED, priority 2004, dated 2015).

System: CF patients
Conditions: young patients with mild lung disease; six months course

B1: rhDNAse: recombinant human DNAse, marketed for thinning CF secretions (protein, UniProt P24855 23-282, looked up)
Deoxyribonuclease-1: LKIAAFNIQTFGETKMSNATLVSYIVQILSRYDIALVQEVRDSHLTAVGKLLDNLNQDAPDTYHYVVSEPLGRNSYKERYLFVYRPDQVSAVDSYYYDDGCEPCGNDTFNREPAIVRFFSRFTEVREFAIVPLHAAPGDAVAEIDALYDVYLDVQEKWGLEDVMLMGDFNAGCSYVRPSQWSSIRLWTSPTFQWLIPDSADTTATPTHCAYDRIVVAGMLLRGAVVPDSALPFNFQAAYGLSDQLAQAISDHYPVEVMLK
benefit in FEVI: 3%
decrease in frequency of intravenous antibiotic courses: 34%
